# “And” between values parts separate entries of the source, which are not always exact repeats. Equal values may be shown once. Numbered stars: 1 amine (or outer) side, 2 acyl side, 3 side chain; on linkers, the order of the positions; unused ones are H or OH. Square brackets hold non-standard residues; d marks the D form. Peptide text beside a SMILES is read from it. γGlu = O=C(O)[C@H](CCC(=O)[*:2])N[*:1]
# Columns and labels:
# [1] = In vitro NAC release from 6-Arm and 8-Arm PEG-S-S-NAC conjugates in PBS with GSH; type: physicochemical; conditions: intracellular GSH concentration (2 and 10 mM), within 2 hours
# Experimental: The in vitro release of NAC from the 6-Arm-PEG-S—S-NAC and 8-Arm-PEG-S—S-NAC conjugates was performed in PBS (pH=7.4) at 37° C. Appropriate amounts of PEG-S—S-NAC conjugate were dissolved in release media (PBS buffered) to form a solution of 1 mg/ml into eppendorf tube and GSH was added to the conjugates to form 10 mM, 2 mM, or 2 μM concentrations and to initiate the release of NAC. All samples were run as triplicates for statistical analysis. As control samples, conjugates were analyzed in PBS buffered media in the absence of reducing agents. The solutions were kept at 37° C. and stirred continuously. At predetermined time intervals, 30 μL of samples were withdrawn and immediately analyzed release of NAC and GS-NAC with RP-HPLC and the concentrations of analytes were determined by using appropriate calibrations prepared under same conditions.
# BV-2 cells = experiment: TNF-α release assay (ELISA), PEG-NAC conjugates; type: cell-based, mouse; conditions: 5 mM
# Experimental: (A) BV-2 cells (passage 22) were co-treated with 100 ng/mL of LPS and the indicated concentration of NAC, 6-Arm-PEG-S—S-NAC conjugate (1) and its correspond 6-Arm-PEG-SH for 72 hours (B) BV-2 cells were co-treated with 100 ng/mL of LPS and the indicated concentration of NAC, 8-Arm-PEG-S—S-NAC conjugate (3) and its correspond PEG for 72 hours. Three samples were in each group. TNF-α in culture medium was measured using mouse TNF-α ELISA Kit.
# The procedure for cell culture and drug treatment was the same as described in an earlier example. TNF-α secretion was measured using an ELISA Kit according to the manufacturer's instruction. In brief, 50 μL of supernatant from each sample was added in 96-well ELISA plates. Biotinylated antibody reagent was applied to each well and incubated the plate at room temperature for 2 hours. After washing the plate with PBS-Tween 20, diluted streptavidin-HRP was added, and the plate was incubated at room temperature for 30 min. After washing the plate, premixed TMB substrate solution was added. The plate was developed in the dark for 30 min, and read at 450 nm using a microplate reader. The concentration of TNF-α was calculated using murine rTNF-α as standard.
# microglial cells = experiment: Toxicity of PEG-NAC conjugates to microglial cells; type: cell-based; conditions: 0.008-0.8 mM
# [2] = Inhibition of GSH depletion by PEG-NAC conjugates; type: cell-based; conditions: equimolar NAC 0.5 mM
# [3] = system: neuroinflammation in newborn rabbit model of cerebral palsy; experiment: In vivo efficacy in newborn rabbit model of cerebral palsy (maternal endotoxin)
# Experimental: New Zealand White rabbits (CoVance Research Products Inc., Kalamazoo, Mich.) with timed pregnancies confirmed with breeders (having a history of delivering 7-11 kits per litter) underwent laparotomy under general anesthesia (2-3% isoflurane by mask) on gestational day 28 (E28, term pregnancy is 31-32 days). 1 mL of saline for the control group (n=6) or 1 mL of saline containing 20 μg/kg of LPS (Escherichia coli serotype O127: B8 from Sigma-Aldrich, St Louis, Mo.) for the endotoxin group (n=6), was equally divided and injected into the uterine wall using a 27 gauge needle between the fetuses taking care not to enter the amniotic sac. This ensured that all the kits were exposed to the same amount of endotoxin. 0.5% NaHCO3 was infused at end of surgery and additional dose NaHCO3 was given at 2 hour after surgery according blood gas.
# The following animal groups were enrolled and used for this example: • Group 1: Pups exposed to 20μ/kg E. Coli LPS in utero treated with saline I.V. (200 ul), Observe for 5 days (N=5-7) • Group 2: Pups exposed to 20μ/kg E. Coli LPS in utero treated with NAC I.V. (200 ul), single dose 10 mg/kg. Observe for 5 days (N=5-7) • Group 3: Pups exposed to 20μ/kg E. Coli LPS in utero treated with NAC I.V. (200 ul), single dose 100 mg/kg. Observe for 5 days (N=5-7) • Group 4: Pups exposed to 20μ/kg E. Coli LPS in utero treated with G4-PAMAM-S—S-NAC I.V (200 ul), single dose 1 mg/kg (based on preliminary data). […]
# All live postnatal day 1 (PND1) control and endotoxin kits from four consecutive litters in each group were tested to reduce the risk of selection bias. The rabbit kits were assessed and scored for behavioral testing, as described by Derrick et al. Briefly, the kits were videotaped and scored on a scale of 0 (worst) to 3 (best) by two blinded observers for (1) posture (ability to maintain prone posture), (2) righting reflex (ability to right itself from supine to prone position for 10 attempts), (3) activity and locomotion on a flat surface (assessed by grading the quality, intensity, and duration of spontaneous movement of the head and front and back legs), (4) ability to move in a straight line and in circles, (5) coordination of suck and swallow assessed by feeding the rabbit kits artificially with formula from a syringe with a dropper, and (6) ability to move head during feeding (scored from 0-3 in which 0 is no movement of head and 3 is forceful movement of head and body). The tone on passive flexion and extension was assessed using the scoring based on the Ashworth scale, as described by Derrick et al, in which 0 indicated no increase in tone and 4 indicated the limb was rigid in flexion or extension. […]
# secondary to maternal endotoxin administration were treated with a single dose of either PBS, NAC 100mg/kg, D-NAC 1 mg/kg or 10mg/kg, or dendrimer alone on day 1of life (31 days post-conception). […] Animals were video-taped for 10 minutes and were scored by two observers in a blinded manner. Scores were based on the maximum number of steps taken without falls (scored from 0-4) and number of hops without falls (scored from 0-4) in one minute of continuous activity. […]
# [4] = Stability of fluorophore-dendrimer conjugates in PBS (HPLC); type: physicochemical; conditions: PBS (pH 7.4), after 72 hours
# Text: The FITC-labeled compound (G4-PAMAM-O-GABA-NH-FITC) was purified by dialysis (membrane cutoff 1000 Da) against DMSO in dark by replacing DMSO, to remove un-reacted compounds. Purity of G4-PAMAM-O-GABA-NH-FITC conjugate was confirmed by HPLC using fluorescent detector (λex=495 nm/λem=521 nm).
# G4-PAMAM-O-GABA-NH2 dendrimer was reacted with the Alexa 488 carboxylic acid succinimidyl ester (Scheme-6). The N-succinimidyl activated ester of Alexa 488 couples to the terminal primary amines to yield amide-linked G4-PAMAM-O-GABA-Alexa conjugate. The formation of conjugate was confirmed by HPLC (FIG. 89) using florescent detector (λex=495 nm/λem=521 nm). […] The absence of any other peak in chromatogram after dialysis of product confirms the absence of free alexa. […] The dendrimer alexa conjugate was prepared for enhanced histological visualization of samples as confocal imaging causes quenching and also to match with the intensities of other alexa conjugated secondary antibodies.
# [5] = Dynamic light scattering size; type: physicochemical; conditions: PBS pH 7.4, 37° C.
# Experimental: Dynamic light scattering (DLS) analyses were performed using a Malvern Instruments Zetasizer Nano ZEN3600 instrument (Westborough, Mass.) with reproducibility being verified by collection and comparison of sequential measurements. G4-PAMAM-O-GABA-NH-FITC and G4-PAMAM-O-GABA-NH-Alexa conjugate samples were prepared using PBS pH=7.4. DLS measurements were performed at a 90° scattering angle at 37° C. Z-average sizes of three sequential measurements were collected and analyzed.
# [6] = Transmembrane transport and permeability, chorioamnion; type: in vitro ADME, human
# Text: (§1) All human fetal membrane specimens were obtained at the time of cesarean section for obstetrical indications. The fetal membrane comprising chorioamniotic membrane (intact membranous tissue containing both amnion and chorion together) (n=7) and amnion (n=7) and chorion (n=7) were separately procured (size 6×9″). Each membrane was cut into 9 pieces for the 9 sets of diffusion chamber. The fresh membranes were collected immediately after the delivery, washed with PBS to remove the blood and stored in PBS until (˜1 h at 4° C.) it was mounted on the diffusion chamber (37±0.5° C.). Excess membranes were trimmed. The diffusion experiments were performed for 48 hours by mounting the membrane in the chamber to study the transport across the membranes. In all the experiments with chorioamniotic membrane the choriodecidua (maternal side) was placed facing the donor chamber and the amnionic epithelium (fetal side) was facing the receptor chamber. The chorion and amnion were mechanically separated by gently pulling the two membranes apart. For the chorion, the side attached to amnion was placed facing the receptor chamber and for the amnion the side attached to the chorion was placed facing the donor chamber in the diffusion apparatus. For histological evaluation, the tissue samples were collected at 0.5, 1, 2, 3 and 4 hours for and were fixed in 10% formalin overnight. Further, some sections were analyzed by hematoxylin and eosin (H & E) staining. The membrane thickness was measured using the Mitutoyo Super Caliper by placing the respective membranes between the two glass slides and subtracting the thickness of the glass slides without the membrane.
# Permeation experiments were carried out using a two-chamber (donor and receptor) side-by-side Permegear diffusion cell with a chamber volume of 3 mL and with a diameter of 13 mm and a diffusional area of 1.32 cm^2. The fetal membranes (chorion and amnion together, amnion and chorion) each (n=9) were mounted between two halves of the donor and receptor cell (9 sets), which were further clamped together and sealed tightly with the rubber packing at the end of each glass chamber. […] The donor cell (volume 3 mL) was filled with solution of compounds whose permeability was evaluated. […] The concentration of compound in the receptor medium was determined using a Molecular Devices SpectroMax M2, UV visible and Fluorescent plate reader at ex 495/em 521. The cumulative amount of compound transported across the membrane in the receptor cell was determined using a calibration curve (a transport of 50% corresponds equilibrium achieved). […]
# (§2) [formula] […] The thickness of the chorioamnion, chorion and amnion was 0.22 mm, 0.16 mm and 0.05 mm respectively (n=7), as measured with the help of Mitutoyo Super Caliper. […]
# [7] = Transmembrane transport and permeability, amnion; type: in vitro ADME, human
# Text: as §1
# (§3) Permeation experiments were carried out using a two-chamber (donor and receptor) side-by-side Permegear diffusion cell with a chamber volume of 3 mL and with a diameter of 13 mm and a diffusional area of 1.32 cm^2. The fetal membranes (chorion and amnion together, amnion and chorion) each (n=9) were mounted between two halves of the donor and receptor cell (9 sets), which were further clamped together and sealed tightly with the rubber packing at the end of each glass chamber. The receptor cell (volume 3 mL) was filled with sterile PBS (pH 7.4). The donor cell (volume 3 mL) was filled with solution of compounds whose permeability was evaluated. […] The system was maintained at 37° C. by using a circulating water bath and a jacket surrounding each cell. The donor and receiving medium was continuously stirred (600 rpm) with a magnetic bar to avoid stagnant aqueous diffusion layer effects. Aliquots (200 μL) were collected from the receptor cell every 30 min till first 6 hours and at predetermined intervals thereafter and replaced with equal volume of PBS to maintain sink conditions throughout the study. […] The concentration of compound in the receptor medium was determined using a Molecular Devices SpectroMax M2, UV visible and Fluorescent plate reader at ex 495/em 521. The cumulative amount of compound transported across the membrane in the receptor cell was determined using a calibration curve (a transport of 50% corresponds equilibrium achieved). All the experiments were conducted in dark room. All experiments were done in triplicate and the results are reported as mean±STDev.
# [formula] To determine the permeability coefficient, P, a plot of −V/2A ln (1−2Ct/C0) against t was constructed and linear fitting was performed. The slope of the linear portion of the graph yields a permeability coefficient. The thickness of the chorioamnion, chorion and amnion was 0.22 mm, 0.16 mm and 0.05 mm respectively (n=7), as measured with the help of Mitutoyo Super Caliper. […] The FIGS. 93A-C and FIG. 94 show the plots used for calculation of the permeability and the correlation in all the cases ranged from 0.96 to 0.99.
# [8] = Transmembrane transport and permeability, chorion; type: in vitro ADME, human
# Text: as §1, §3, §2
# Solubility in PBS/H2O = type: physicochemical
compound,measurement,setting,value
6 Arm-PEG-S—S-NAC Conjugate [6-arm-PEG-S—S-NAC],NAC released,[1],74%
same,inhibition of TNF-α production,BV-2 cells,70%
same,toxicity to the microglial cells,microglial cells,nontoxic
same,inhibition of GSH depletion versus free NAC,[2],more efficient
PAMAM-O-GABA-NH—CO-Ethyl-S—S-NAC [Dendrimer-NAC],suppression of NF-κB,"[3]; 1 mg/kg single dose on PND-1, hippocampus PND 5",as effective as 100 mg/kg of NAC alone
same,suppression of IL-6 relative to free drug,[3]; hippocampus,10-100 times
same,suppression of TNF-alpha mRNA expression relative to free drug,"[3]; hippocampus, 5 days of age",10-100 times
same,effect on myelination compared to the drug alone,"[3]; rabbit, in vivo",increased myelination
same,efficacy relative to free NAC,[3]; single i.v. administration,≤ 100 times
G4-PAMAM-O-GABA-NH-Alexa-488,stability of the conjugate,[4],alexa was not released from the conjugate
same,size (DLS),[5],5.6 nm
8 Arm-PEG-S—S-NAC Conjugate [8-arm-PEG-S—S-NAC],NAC released,[1],74%
same,inhibition of TNF-α production,BV-2 cells,70%
same,toxicity to the microglial cells,microglial cells,nontoxic
same,inhibition of GSH depletion versus free NAC,[2],more efficient
G4-PAMAM-O-GABA-NH-FITC [D-FITC],"Permeability coefficient, Chorioamnion",[6]; 0.6 mg/mL,7.5×10^−8 cm^2/s
same,"Permeability coefficient, Chorioamnion",[6]; 3 mg/mL,5.8×10^−8 cm^2/s
same,transport across chorioamnion,[6]; in 5 hours,≤ 3%
same,"Permeability coefficient, Amnion",[7]; 0.6 mg/mL,1.86×10^−8 cm^2/s
same,"Permeability coefficient, Amnion",[7]; 3 mg/mL,2.08×10^−7 cm^2/s
same,transport across amnion,[7]; in 5 hours,≤ 3%
same,transport across amnion,"[7]; in 20 hours, 0.6 mg/mL",22%
same,"Permeability coefficient, Chorion",[8]; 0.6 mg/mL,2.94×10^−8 cm^2/s
same,"Permeability coefficient, Chorion",[8]; 3 mg/mL,2.94×10^−8 cm^2/s
same,transport across chorion,[8]; in 5 hours,≤ 3%
same,transport across chorion,"[8]; in 20 hours, 0.6 mg/mL, listed as G4-PAMAM dendrimer",10% and ~10.5%
same,stability of the conjugate,[4],FITC was not released from the conjugate
same,size (DLS),[5],5.4 nm
"CC(=O)N[C@@H](CCC(=O)N[C@@H](CS)C(=O)NCC(=O)O)C(=O)O [GS-S-NAC, N-Acetyl-glutathione] (Ac-[γGlu]-Cys-Gly-OH)",Solubility in PBS/H2O,Solubility in PBS/H2O,Soluble

# Reference: patent US10172951B2, “Dendrimer based nanodevices for therapeutic and imaging purposes” (priority 2009, dated 2019)
